B1: C3H14L promoter fragment (dsDNA)
DNA 1: TGGCTTAAATCATATTGACAAGACCCATTAAAAAGAGG
DNA 2: CCTCTTTTTAATGGGTCTTGTCAATATGATTTAAGCCA
B2: C3H14 promoter fragment (dsDNA)
DNA 1: TGGAAGATGCATGTTATTGACTAAATATGATCTACCA
DNA 2: TGGTAGATCATATTTAGTCAATAACATGCATCTTCCA
B3: NST2 promoter fragment (dsDNA)
DNA 1: AAAGAGACCATTAGTATATTTGACCCAAAAAAAAATAAAAAAAAAAGAG
DNA 2: CTCTTTTTTTTTTATTTTTTTTTGGGTCAAATATACTAATGGTCTCTTT

Tests used:
[1] = target: T1, AtWRKY12 (Arabidopsis thaliana, UniProt Q93WY4 SEQ:1-218); assay: EMSA; 100 ng protein, 20 min; no binding detected; details: tags: MBP fusion, expressed in E. coli, amylose resin purified; label: 5' biotin on one strand
Source text: (§1) To express the recombinant AtWRKY12 protein, the coding sequence was fused in frame with maltose binding protein (MBP), expressed in E. coli, and the recombinant protein was purified using amylose resin. The pure protein was used for EMSA with the NST2 or C3H promoter fragments. Double-strand probe and competitor fragments were made from annealing of separately synthesized strands, with/without one 5′ biotin labeled strand. The sequence used for NST2 was:
(§2) For C3H the sequence was: 5′-[…]-3′ (SEQ ID NO:42); and for C3HL the sequence was 5′-[…]-3′ (SEQ ID NO:43). The conserved WRKY binding motifs are underlined. The biotin-labeled and competitor DNA fragments were incubated for 20 min with 100 ng of AtWRKY12-MBP in binding buffer according to the EMSA kit protocol (Pierce, Rockford, Ill.), and reaction mixtures were loaded for polyacrylamide gel electrophoresis. The DNA was electroblotted onto nitrocellulose membrane and detected by the chemiluminescent method.

[2] = target: T1, AtWRKY12; assay: EMSA; 100 ng protein, 20 min, Pierce EMSA kit buffer; details: tags: MBP fusion, expressed in E. coli, amylose resin purified; label: 5' biotin on one strand
Source text: as §1, §2

T1 sequence (Q93WY4 whole entry, the tested form may be a part): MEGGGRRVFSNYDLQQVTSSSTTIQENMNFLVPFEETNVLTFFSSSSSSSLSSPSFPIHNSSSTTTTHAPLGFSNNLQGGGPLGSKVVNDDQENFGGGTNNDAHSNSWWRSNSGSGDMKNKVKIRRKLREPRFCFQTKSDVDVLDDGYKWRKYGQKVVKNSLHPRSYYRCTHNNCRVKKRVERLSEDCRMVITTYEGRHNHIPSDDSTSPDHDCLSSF

Row | Binder | binding result [1] | binding result [2]
1 | B1 | no binding | 
2 | B2 | no binding | 
3 | B3 |  | binds

Reference: US20120117691, “TRANSCRIPTION FACTORS FOR MODIFICATION OF LIGNIN CONTENT IN PLANTS” (The Samuel Roberts Noble Foundation, Inc., published 2012)
